Data taken from patent US20240034757A1 (OXFORD UNIVERSITY INNOVATION, published 2024).
Where a chain is given by its changes, count along the chain named.

T1: CCL5_HUMAN (human, UniProt P13501 24-91)
T1 sequence: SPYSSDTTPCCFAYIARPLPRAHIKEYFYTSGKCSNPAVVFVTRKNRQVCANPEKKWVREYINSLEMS

T2: CCL8_HUMAN (human, UniProt P80075 24-99)
T2 sequence (looked up): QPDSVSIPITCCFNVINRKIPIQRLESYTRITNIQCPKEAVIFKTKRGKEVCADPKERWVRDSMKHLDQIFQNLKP

T3: CXCL11_HUMAN (human, UniProt O14625 22-94)
T3 sequence: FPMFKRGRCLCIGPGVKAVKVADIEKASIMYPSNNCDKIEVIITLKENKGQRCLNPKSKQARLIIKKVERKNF

T4: CXCL14_HUMAN (human, UniProt O95715 35-111)
T4 sequence: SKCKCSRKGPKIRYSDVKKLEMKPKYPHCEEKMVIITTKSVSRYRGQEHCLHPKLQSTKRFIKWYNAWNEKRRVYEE

T5: CXCL7_HUMAN (human, UniProt P02775 59-128)
T5 sequence: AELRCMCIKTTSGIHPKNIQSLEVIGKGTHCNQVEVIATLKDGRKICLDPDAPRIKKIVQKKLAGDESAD

T6: CXCL8_HUMAN (human, UniProt P10145 28-99)
T6 sequence: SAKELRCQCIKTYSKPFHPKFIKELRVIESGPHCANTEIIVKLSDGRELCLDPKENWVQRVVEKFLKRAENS

T7: CXCL2_HUMAN (human, UniProt P19875 35-107)
T7 sequence: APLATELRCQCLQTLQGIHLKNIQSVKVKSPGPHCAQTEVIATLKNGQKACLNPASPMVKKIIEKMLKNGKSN

T8: CXCL4_HUMAN (human, UniProt P02776 32-101)
T8 sequence: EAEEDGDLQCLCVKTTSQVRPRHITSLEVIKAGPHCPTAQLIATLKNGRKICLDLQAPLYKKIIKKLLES

T9: CXCL5_HUMAN (human, UniProt P42830 41-114)
T9 sequence: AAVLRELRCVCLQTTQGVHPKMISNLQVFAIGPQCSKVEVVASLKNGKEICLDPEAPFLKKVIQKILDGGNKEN

T10: CXCL10_HUMAN (human, UniProt P02778 22-98)
T10 sequence: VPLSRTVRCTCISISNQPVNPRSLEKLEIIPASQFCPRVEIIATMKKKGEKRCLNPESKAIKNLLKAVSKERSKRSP

T11: CXCL9_HUMAN (human, UniProt Q07325 23-125)
T11 sequence: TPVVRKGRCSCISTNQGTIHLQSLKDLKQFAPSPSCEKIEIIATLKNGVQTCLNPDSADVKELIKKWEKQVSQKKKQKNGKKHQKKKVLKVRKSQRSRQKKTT

T12: CXCL6_HUMAN (human, UniProt P80162 38-114)
T12 sequence: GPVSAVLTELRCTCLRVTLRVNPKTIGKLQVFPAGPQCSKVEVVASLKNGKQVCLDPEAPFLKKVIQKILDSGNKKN

T13: CCL25_HUMAN (human, UniProt O15444 24-150)
T13 sequence: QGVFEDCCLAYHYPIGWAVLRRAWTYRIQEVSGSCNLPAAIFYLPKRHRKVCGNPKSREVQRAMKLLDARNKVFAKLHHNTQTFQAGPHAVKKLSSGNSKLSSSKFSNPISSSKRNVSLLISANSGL

T14: P1095_IXORI (Ixodes ricinus, UniProt A0A0K8RCE3 24-112)
T14 sequence: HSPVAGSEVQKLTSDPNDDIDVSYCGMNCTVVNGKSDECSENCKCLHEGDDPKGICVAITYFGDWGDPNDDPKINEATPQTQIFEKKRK

T15: P1096_IXORI (Ixodes ricinus, UniProt A0A0K8RKE4 24-114)
T15 sequence: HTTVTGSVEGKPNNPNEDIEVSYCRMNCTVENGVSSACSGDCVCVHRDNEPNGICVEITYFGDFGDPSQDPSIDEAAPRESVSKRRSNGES

T16: P1134_IXORI (Ixodes ricinus, UniProt A0A0K8RAI0 32-135)
T16 sequence: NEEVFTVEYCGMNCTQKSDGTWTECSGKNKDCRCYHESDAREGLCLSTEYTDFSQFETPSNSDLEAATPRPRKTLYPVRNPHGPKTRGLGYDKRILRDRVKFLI

T17: CXCL1_HUMAN (human, UniProt P09341 35-107)
T17 sequence: T7 sequence with P2S, L3V, L20P, K27N, Q48R, M58I, K68N, N69S, G70D

T18: CXCL3_HUMAN (human, UniProt P19876 35-107)
T18 sequence: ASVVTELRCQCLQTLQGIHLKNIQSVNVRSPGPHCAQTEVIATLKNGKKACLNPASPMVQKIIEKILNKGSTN

B1: P467_RHIPU (other)
chain: AEKSLDSDSSGEDYELWTQGCPFLVAENRTGFGTTVSCQHNCNGAIEKVPEGEPCYTIGEDGLGRMKLNLPYNCSLGECSGGVCVPNGRSDVCFKRTWEENNKAMA
B2: P1086_IXORI (other)
chain: GSKGQRASQVSETSITAEFCDTSCTQGTDKTWSGCSGDCFCVHVGNDTEGRCMRWDGDYPSAEEEE
B3: EVA3_RHISA (other)
single chain: LVSTIESRTSGDGADNFDVVSCNKNCTSGQNECPEGCFCGLLGQNKKGHCYKIIGNLSGEPPVVRR
notes: also called Evasin-3; evasin 3
B4: P1146_IXORI (other)
chain: GPDTKGDEESDENELFTVEYCGTNCTQLENGSWTPCSGNNGNCRCFHESDKTVGLCLSTEYTDFSEYPDPNSSEIIAAAPLPRERLIQ
B5: CXCL13_HUMAN (ligand)
chain: VLEVYYTSLRCRCVQESSVFIPRRFIDRIQILPRGNGCPRKEIIVWKKNKSIVCVDPQAEWIQRMMEVLRKRSSSTLPVPVFKRKIP
B6: P1156_IXORI (other)
chain: ADDDNELFTVQYCGMNCTKDEGGTWTGCTGKKEGCKCYHESGKNYGLCLSTEYTDFSQYGNPSDSEIEAAKPKRSDTLSH

Tests used:
[1] = target: T1, CCL5_HUMAN; test: cell-based or functional assay
[2] = target: CCL7_HUMAN (human, UniProt P80098 24-99); test: cell-based or functional assay
Sequence of CCL7_HUMAN (P80098 24-99 limits assumed): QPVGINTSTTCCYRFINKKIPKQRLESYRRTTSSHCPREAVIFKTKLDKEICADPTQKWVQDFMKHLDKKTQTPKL

[3] = target: T2, CCL8_HUMAN; test: cell-based or functional assay
[4] = target: CCL2_HUMAN (human, UniProt P13500 24-99); test: cell-based or functional assay
Sequence of CCL2_HUMAN (P13500 24-99 limits assumed): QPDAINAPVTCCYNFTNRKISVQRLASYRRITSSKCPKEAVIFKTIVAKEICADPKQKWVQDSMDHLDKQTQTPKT

[5] = target: T3, CXCL11_HUMAN; test: BLI
[6] = target: CXCL12_HUMAN (human, UniProt P48061 22-89); test: BLI
Sequence of CXCL12_HUMAN (P48061 22-89 limits assumed): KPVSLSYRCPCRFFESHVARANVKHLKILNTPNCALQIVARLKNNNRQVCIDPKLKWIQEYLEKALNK

[7] = target: T4, CXCL14_HUMAN; test: BLI
[8] = target: T5, CXCL7_HUMAN; test: BLI [Cont.]
[9] = target: T6, CXCL8_HUMAN; test: BLI [Cont.]
[10] = target: T7, CXCL2_HUMAN; test: BLI [Cont.]
[11] = target: T8, CXCL4_HUMAN; test: BLI [Cont.]
[12] = target: T9, CXCL5_HUMAN; test: BLI [Cont.]
[13] = target: T10, CXCL10_HUMAN; test: yeast surface display FACS re-test; note: test concentration or dose not given here
[14] = target: T11, CXCL9_HUMAN; test: BLI
[15] = target: T10, CXCL10_HUMAN; test: BLI
[16] = target: B5; test: BLI
[17] = target: T12, CXCL6_HUMAN; test: BLI [Cont.]
[18] = target: T13, CCL25_HUMAN; test: yeast surface display FACS
[19] = target: P1080_IXORI (Ixodes ricinus, UniProt A0A090XBL6 20-118); test: BLI
Sequence of P1080_IXORI (A0A090XBL6 20-118): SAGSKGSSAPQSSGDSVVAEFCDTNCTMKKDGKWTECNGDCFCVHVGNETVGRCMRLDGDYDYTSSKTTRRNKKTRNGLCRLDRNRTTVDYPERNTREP

[20] = target: T14, P1095_IXORI; test: BLI
[21] = target: T15, P1096_IXORI; test: BLI
[22] = target: T16, P1134_IXORI; test: BLI
[23] = target: T17, CXCL1_HUMAN; test: BLI
[24] = target: T18, CXCL3_HUMAN; test: BLI
[25] = target: T6, CXCL8_HUMAN; test: BLI
[26] = target: T7, CXCL2_HUMAN; test: BLI
[27] = target: T9, CXCL5_HUMAN; test: BLI
[28] = target: T12, CXCL6_HUMAN; test: BLI

Binder: B1
- IC50, THP1 cell migration [1]: 8.74 nM
- IC50, THP1 cell migration [2]: 11.1 nM
- IC50, THP1 cell migration [3]: 1.92 nM
- IC50, THP1 cell migration [4]: 3.26 nM

Binder: B2
- binding result [5]: no binding (tested: 300 nM)
- Kd [6]: 142 nM
- binding result [7]: no binding (tested: 300 nM)
- binding result [8]: no binding (tested: 300 nM)
- binding result [9]: no binding (tested: 300 nM)
- Kd [10]: 34 nM
- binding result [11]: no binding (tested: 300 nM)
- Kd [12]: 26 nM
- % cells over threshold fluorescence [13]: 63%

Binder: B3
- binding result [14]: no binding (tested: 300 nM)
- binding result [15]: no binding (tested: 300 nM)
- binding result [5]: no binding (tested: 300 nM)
- binding result [6]: no binding (tested: 300 nM)
- binding result [16]: no binding (tested: 300 nM)
- binding result [7]: no binding (tested: 300 nM)
- binding result [8]: no binding (tested: 300 nM)
- Kd [10]: 7.49 nM
- binding result [11]: no binding (tested: 300 nM)
- Kd [12]: 24.9 nM
- Kd [17]: 1.03 nM

Binder: B4
- binding result [18]: binds

Binder: B5
- Kd [19]: 1110 nM
- binding result [20]: no binding (tested: 300 nM)
- binding result [21]: no binding (tested: 300 nM)
- binding result [22]: no binding (tested: 300 nM)

Binder: B6
- RT [23]: 35.7 min
- RT [24]: 5.76 min
- RT [25]: 46.7 min
- RT [26]: 4.2 min
- RT [27]: 5.33 min
- RT [28]: 3.23 min
- binding result [14]: no binding (tested: 300 nM)
- binding result [6]: no binding (tested: 300 nM)
- binding result [16]: no binding (tested: 300 nM)
